These results are taken from the supplement of paper PMC10899765.

Holding throughout (details): 20 nM; 72 h
The subject of series [1] is MCF10A. Briefly: 5+ nucleoli phenotype percent effect (relative to siNT 0% and siKIF11 100%); higher = more cells with five or more nucleoli. Here is the method: (§1)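 After 72 h, cells were fixed and stained with Hoechst and anti-fibrillarin, and nucleoli per nucleus were counted with CellProfiler. Values are plate-adjusted percent effect for the one-nucleolus and 5+ nucleoli phenotypes, normalised to siNT (0%) and to the positive controls siNOL11 or siKIF11 (100%), as the mean of biological triplicates. Percent viability is the nuclei count relative to siNT.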

Series [2] deals with MCF10A. Briefly: percent viability (nuclei count relative to siNT); higher = more viable cells. As for the experimental part: as §1
For series [3], the system named is MCF10A. Briefly: one-nucleolus phenotype percent effect (relative to siNT 0% and siNOL11 100%); higher = more cells with one nucleolus (ribosome biogenesis inhibition). Here is the method:
as §1

Turning to “UGCUCAGGUUGCACAGCUGGGA [hsa-miR-3934-3p]”, the “5+ nucleoli phenotype percent effect” value in the series with MCF10A [1] is -20.7%. The percent viability in the series with MCF10A [2] was determined as 52.8%. In addition, in the series on MCF10A [3], the “one-nucleolus phenotype percent effect” value was determined as 9.77%.
In the same order, the values of UGCUGAGGUCCGGGCUGUGCC [hsa-miR-7160-5p] are -22.1%, 16.8% and 47.5%.
The matching figures for UGCUGAUGGCAGAUGUCGGGUCUG [hsa-miR-8075]: -34.6%, 20.8% and 44.2%.
“UGCUGCCUCUCCUCUUGCCUGCAG [hsa-miR-6882-3p]”: in the series on MCF10A [1], the “5+ nucleoli phenotype percent effect” value stood at 44.3%. Besides, in the series with MCF10A [2], the percent viability was found to be 45.6%. Further, in the series on MCF10A [3], the “one-nucleolus phenotype percent effect” value is -22.8%.
The matching figures for UGCUGGAUCAGUGGUUCGAGUC [hsa-miR-1287]: -26.2%, 25.2% and 64.1%.
The matching figures for “UGCUGGCUCAUUUCAUAUGUGU [hsa-miR-5580-5p]”: -18.4%, 29.6% and 22.1%.
The matching figures for “UGCUGGGGGCCACAUGAGUGUG [hsa-miR-4731-5p]”: -2.14%, 20.7% and 40.3%.
With UGCUGUAUUGUCAGGUAGUGA [hsa-miR-4999-5p], the “5+ nucleoli phenotype percent effect” value in the series with MCF10A [1] was -10.3%. The same sequence came in with a percent viability in the series on MCF10A [2] of 48.1%. Also, the “one-nucleolus phenotype percent effect” value with MCF10A [3] is -7.82%.
In the same order, the values of UGCUUAACCUUGCCCUCGAAA [hsa-miR-4804-3p] are -30.7%, 49.2% and 20.5%.
For the sequence UGCUUAAGUUGUACCAAGUAU [hsa-miR-4720-3p], the “5+ nucleoli phenotype percent effect” value in the series with MCF10A [1] was -20.7%. Moreover, in the series on MCF10A [2], the percent viability amounted to 53.4%. The “one-nucleolus phenotype percent effect” value with MCF10A [3] amounted to 7.73%.
On to UGCUUCCUUUCAGAGGGU [hsa-miR-516a-3p], for which the “5+ nucleoli phenotype percent effect” value in the series on MCF10A [1] was -23%. The sequence further came in with a percent viability in the series on MCF10A [2] of 100%. Further, the “one-nucleolus phenotype percent effect” value in the series on MCF10A [3] is -10.2%.
In the same order, the values of UGCUUCCUUUCAGAGGGU [hsa-miR-516b-3p] are -29.9%, 78.4% and 8.29%.
On to UGCUUCCUUUCUCAGCUG [hsa-miR-7162-5p], for which the “5+ nucleoli phenotype percent effect” value in the series with MCF10A [1] was -13.8%. In the series with MCF10A [2], this sequence displayed a percent viability of 64.9%. Further, the “one-nucleolus phenotype percent effect” value in the series on MCF10A [3] stood at 0.399%.
In the same order, the values of UGGAAAAAACUGGUGUGUGCUU [hsa-miR-3148] are -1.39%, 35.9% and -7.81%.
In the same order, the values of UGGAAGACUAGUGAUUUUGUUGU [hsa-miR-7-5p] are -32.4%, 51.8% and 25.5%.
Regarding UGGAAGGAGGUUGCCGGACGCU [hsa-miR-4533], the “5+ nucleoli phenotype percent effect” value in the series on MCF10A [1] was -14.3%. In the series on MCF10A [2], this sequence showed a percent viability of 46.4%. The “one-nucleolus phenotype percent effect” value with MCF10A [3] was 9.34%.
The matching figures for UGGAAGGGAGAAGAGCUUUAAU [hsa-miR-3202]: -35.3%, 21.6% and 62.8%.
The matching figures for UGGAAUGUAAAGAAGUAUGUAU [hsa-miR-1]: -15.8%, 38.5% and 8.45%.
Consider UGGAAUGUAAGGAAGUGUGUGG [hsa-miR-206], for which, in the series with MCF10A [1], the “5+ nucleoli phenotype percent effect” value was -23.7%. Moreover, in the series with MCF10A [2], the percent viability is 48.8%. In the series with MCF10A [3], the “one-nucleolus phenotype percent effect” value turned out to be 48.4%.
The matching figures for UGGACCUCUCCUCCCCAG [hsa-miR-6861-3p]: 7.71%, 40.5% and 2.35%.
In the case of UGGACGGAGAACUGAUAAGGGU [hsa-miR-184], the “5+ nucleoli phenotype percent effect” value in the series on MCF10A [1] turned out to be 80.3%. In addition, in the series on MCF10A [2], the percent viability was 43%. The “one-nucleolus phenotype percent effect” value in the series with MCF10A [3] is -17.7%.
With UGGACUGCCCUGAUCUGGAGA [hsa-miR-1288], in the series with MCF10A [1], the “5+ nucleoli phenotype percent effect” value came out at 2.11%. In the series on MCF10A [2], this sequence displayed a percent viability of 33%. The “one-nucleolus phenotype percent effect” value in the series with MCF10A [3] is 7.88%.
For “UGGAGACGCGGCCCUGUUGGAGU [hsa-miR-139-3p]”, the “5+ nucleoli phenotype percent effect” value in the series with MCF10A [1] was -24.5%. The same sequence came in with a percent viability in the series on MCF10A [2] of 68%. Also, the “one-nucleolus phenotype percent effect” value with MCF10A [3] came to 20.9%.
Regarding UGGAGAGAAAGGCAGUA [hsa-miR-4306], in the series with MCF10A [1], the “5+ nucleoli phenotype percent effect” value is 31.6%. Also, in the series on MCF10A [2], the percent viability is 13.5%. Moreover, the “one-nucleolus phenotype percent effect” value in the series on MCF10A [3] is -8.22%.
